Assay: yeast display, Sf9 membrane polyspecificity reagent, FACS + sequencing; frameworks hold sequencing errors
Method in brief: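 Nanobodies came from a synthetic yeast display library in Saccharomyces cerevisiae BJ5465, induced with galactose for 36–48 hours and stained for 1 hour at 4 °C with 10% biotinylated, detergent-solubilized Sf9 membrane reagent. Cells were enriched on streptavidin microbeads and then FACS-sorted, with low and high (top ~1%) gates set on anti-HA fluorescence for expression and streptavidin fluorescence for reagent binding. Each polyreactivity label reflects the gate a clone came from. Genes were amplified by colony PCR, sequenced by MiSeq 2 × 250 and filtered by CDR length.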
In the case of “QVQLVESGGGLVQAGGSLRLSCAASGRTFYIYTRGWYRQAPGKERELVAAISSSGDSTYYADSVKGRFTISRDNAKNTVYLQMNSLKPEDTAVYYCAAYPTYPDEYWGQGTQVTVSS”, the “polyreactivity (PSR sort gate)” value is reported as “low polyreactivity”.
With “HVQVVESGGGLVQAGGSLRLSCAASGRIFLLYTMGWYRQAPGKERELVAAISSDDSTNYADSVKGRFTISRDNAKNTVYIQMNSLKPEDTAVYYCAAGRKSYYRIYSEYVEFDYWGQGTQVTVSS” the “polyreactivity (PSR sort gate)” value was “low polyreactivity”.
For “QVQLVESGGGLVQAGGSLRLSCAASGRILTYNTMGWYRQAPGKERELVAAITWRGGSTYYADSVKGRFTISRDNAKNTVYLQMNSLKPEDTAVYYCAKYVAFHYKQYDFNWGQGTQVTVSS”, the “polyreactivity (PSR sort gate)” value was “high polyreactivity”.
For “QVQLVESGGGIVQAGGSLRLSCAASGSIFDSYTMGWYRQAPGKERELVATINRSGGSTYYADSVKGRFTISRDTAKNTVYLQMNSLKPEDTAVYYCATVYPYTPYSSWRSKYDYWGQGTQVTVSS”, the “polyreactivity (PSR sort gate)” value was “low polyreactivity”.
With “QVQLVESGGGLVQAGGSRRLSCAASGRTFFYNAMGWYRQAPGKERELLAAISYSGGSTYYADSVKGRFTISRDNAKNTVYLQMNSLKPEDTAVYYCAARDKTRSVRRTGMDYWGQGTQVTVSS” the “polyreactivity (PSR sort gate)” value was “high polyreactivity”.
In the case of “QVQHVESGGGLVQAGGSLRLSCAASGRTFTFNAMGWYRPAPGKERELVARIDWRGITYADSVKGRFTISRDNAKNTVYLQMNSLKPEDTAVYDCAAVWLHISYYGKYDYWGQGTQVTVSS”, the “polyreactivity (PSR sort gate)” value is reported as “low polyreactivity”.
For “QVQLVESGGGLVQAGGSLRLSCAASGSTFDWYAMGWYRQAPGKERELVAAITSGGSTYYADSVKGRFTISRDNAKNTVYLQMNSLKPEDTAVYYCAAESRQVRYILYYYWGQGTQVTVSS”, the “polyreactivity (PSR sort gate)” value was “low polyreactivity”.
For “QVQLVESGGGLVQAGGSLRLSCDASGSIFSTYVMGWYRQAPGKERELVAAITVSVGSTYYADSVKGRFTISRDNAKNTVYLQMNSLKPEDTAVYYCAAGSYSRYLYSLYFDFDYWGQGTQVTVSS”, the “polyreactivity (PSR sort gate)” value was “low polyreactivity”.
For “QVQLVESGGGLVQAGGSLRLICAASGSTFDVNAMGWYRQAPGKEREFVAANSWSGGSTYYADSVKGRFTISRDIAKNTVYLQMNSLKPEDTAVYYCNADYVFKDGLGFRGLAGGDYWGQGTQVTVSS”, the “polyreactivity (PSR sort gate)” value was “low polyreactivity”.
In the case of “QVQLVESGGGLVQAGGSLSLSCAASGRSWFGNAMGWYRQAPGKERELVASISTRGGSTYYADSVKGRFTISRDNAKNTVYLQMNSLKPEDTAVYYCAKRGRDRRIYGYWGQGTQVTVSS”, the “polyreactivity (PSR sort gate)” value is reported as “high polyreactivity”.
For “QVQLVESGGGLVQAGGSLRLSCAASGSTLASYARGWYRQAPGKERELVAAISSSGGSTYYADSVKGRFTISRDNAKNTVYLQMNSLKPEDSEVYYCAARTRTRYGIDYYWGQGTQVTVSS”, the “polyreactivity (PSR sort gate)” value was “high polyreactivity”.
With “QVQLVESGGGLVQAGGSLRLSCAASGRIFARKAMGWYRQAPGKEGELVARIRASGGSTYYADSVKGRFTISRDNAKNTVYLQMNSLKPEDTAVYYCNARTSSPYRVDYWGQGTQVTVSS” the “polyreactivity (PSR sort gate)” value was “high polyreactivity”.
With “QVQLVESGGGLVQAGGSLRLSCAASGSIFDLNAMGWYRQAPGKERELVAAISKSGGSTYYADSVKGRFTISRDNAKHTVYLQMNSLKPEDTAVYYCAARYHYPGNWYNYWGQGTQVTVSS” the “polyreactivity (PSR sort gate)” value was “low polyreactivity”.
For “QVQLVESGGGLDQAGGSLRLSCAASARTFTYYAMGWYRQAPGKERELVAAIRWTGDSTYYADSVKGRFTISRDYAKNTVYLQMNSLKPEDTAVYYCAKQARWQYDGGIRWYYYWGQGTQVTVSS”, the “polyreactivity (PSR sort gate)” value was “high polyreactivity”.
With “QVQLVESGGGLVQAGGSLRLSCAASGRIFPTYTMGWYRQAPGKERELVAAINRGGGSTYYADSVKGRFTISRDNAKNTVYLQMNSLKPEDTAVYYCNARTYYRYYGYDYWGQGTQVTVSS” the “polyreactivity (PSR sort gate)” value was “low polyreactivity”.
With “QVQLVESGVGLVHAGGSLRLSCAASGSTFYANTMGWYIQAPGKERELVAAISQSGGSTYYADSVKGRFSISRDNAKNTVYLQMNSLKPEDTAVYYCAARRLPRKERKLYYWGQGTQVTVSS” the “polyreactivity (PSR sort gate)” value was “high polyreactivity”.
With “QVQLEESGGGLVQAGGSLRLSCAASGRIQYNAMGWYRQAPGKEREFVAAISWSGGTTYYADSVKGRFTISRDNAKNTVYLQMNSLKPEDTAVYYCATPYTHWGQGTQVTVSS” the “polyreactivity (PSR sort gate)” value was “high polyreactivity”.
In the case of “QVQLVESGGGLVQARGSLRLSCAASGSIFTYNAMGWYRQAPGKERELVAAIDYSGGSTYYADSVKGRFTISRDNAKNTVYLQMKSLKPEDTAVYYCAAPWVPYPGYSLYGYDYWGQGTQVSVSS”, the “polyreactivity (PSR sort gate)” value is reported as “low polyreactivity”.
In the case of “QVQLVESGGGLVQAAGSLRLSCAASGSTFQYYAMGWYRQAPGKERELVAAISASVDTTFYADSVKGRFTISRDNAKNTVYLQMNSLKPEDTAVYYCAKRYVDPLGSGTHGSWGQGTQVTVSS”, the “polyreactivity (PSR sort gate)” value is reported as “low polyreactivity”.
With “QVQLVESGGGLVQAGGSLRLSCAASGSIFYWNAMGWYRQAPGKERELVAAINYSGDSTYYADSVKGRFTISRDNAKNTVYLQMNSLKPEDTAVYYCNFDYWGQGTQVTVSS” the “polyreactivity (PSR sort gate)” value was “low polyreactivity”.
With “QVQLQESGGGLVQAGGSLRKSCAASGYIFTQYGMGWYRQGPGKERKFVATISYGGNTNYADSVKGRFTISRDNAKNTVYLQLNSLKPEDTAVYSCATKSVGYRKYWSGDIYDYWGQGTQVTVSS” the “polyreactivity (PSR sort gate)” value was “low polyreactivity”.
In the case of “QVHLVESGGGLVQAGGSIRLSCAASGRTFAYNVKGWYIQAPGKVREVVAGISFGAGSTYYADSVKGRFTISRDNAKNTVYLQMNSLKPEDTAVYYCATGRRGTRYPRGYDYWGQGTQVTVSS”, the “polyreactivity (PSR sort gate)” value is reported as “high polyreactivity”.
With “QVQLVESGGGLVQAGGSLRLSCAASGFIFRYNAMGWYRQAPGKERELVARISSGGSTNYADSVKGRFTISRDNAKNTVYLQMNSLIPEDTAVYYCAVKQYWYIWSGYGYDYWGQGTQVTVSS” the “polyreactivity (PSR sort gate)” value was “high polyreactivity”.
With “QVQLVESGGGLVQAGGSLRLRGAASGFTYLYYAMGWYRQAPGKERELVAAITWSGDSTYYADSVKGRFTISRDNAKNTVYLQMNSLKPEDTAVYYCANGGVTFGTVVRGVDGDYWGQGTQVTVSS” the “polyreactivity (PSR sort gate)” value was “low polyreactivity”.
In the case of “HVQLVESGGGLVQAGGSLRLSCAASGRIYWANAKGRYRQAPGKERELVAAISYSGGTYYADSVKGGFTISRDNAKNTVYLQMNSLKPADTAVYFCAAVDRRDGTKRWGFDYWGQGTQVTVSS”, the “polyreactivity (PSR sort gate)” value is reported as “high polyreactivity”.
With “HVQLVESGGGLVQAGGSLRLSCAASGSTFGYYTMGWYREAPGKERELVAAISWSGGSTYYADSVKGRFTISRDNAKNTVYLQMNRLKPEDTAVYYCAALGYTYKYYSYYWGQGTQVTVSS” the “polyreactivity (PSR sort gate)” value was “high polyreactivity”.
In the case of “QVQLVESGGGLVQAGGSLRLSCAASGITFRKYVMGWYRQAPGKERELVATITRNGGTTNYADSVKGRFTISRDNAKNTVYLQMNSLKPEDTAVYYCAAVRRDYDDVYTEYWGQGTQVTVSS”, the “polyreactivity (PSR sort gate)” value is reported as “high polyreactivity”.
For “QVQLVESGGAIVQAGGSLRLSCAASGRIYYPYAMGWYRQAPGKERELVAAISSGVSTNYADSVKGRFTITRDNAKNTVYLQMNSLNPEDTAVYYCARTYFRFSSSYYKAVSHGFWGQGTQVTVSS”, the “polyreactivity (PSR sort gate)” value was “high polyreactivity”.
In the case of “QFQLVESGGGLVQAGGSLRLSCAASGSIFGVYVMGWSRQGAGKERELVAAITRGASTNYADSVKGRFTISRDNAKNTVYLQMNSLKPEDTAVYYCAAESGNRYEYWGQGTQVTVSS”, the “polyreactivity (PSR sort gate)” value is reported as “low polyreactivity”.
With “QVQLVESGGGLVQAGGSLRLSCAASGRIFSAYAMGWYRQAPGKERELVAVISSGDSTNYADSVKGRFTISRDNAKNTVYLQMNSLKPEDTAVYYCNARGKHRYGFRSHVGNEYWGQVTQVTVSS” the “polyreactivity (PSR sort gate)” value was “low polyreactivity”.
With “QVQLVESGGGLVQAGGSLRLSCAASGSIFYPYAMGWYRQAPGKERELVAAISSGGTTYYADSVKGRFTISRDNAKNTVYLQMNSLKPEDTAVYYCGAGFYLRAVWMDYWGQGTQVTVSS” the “polyreactivity (PSR sort gate)” value was “high polyreactivity”.
With “QVQLVESGGGLVQAGGSLRLSCAASGSTFTDYAMGWYRQAPGKERELVAAIRFSGGSTYYADSVKGRFTISRDNAKNTVYLQMNSLKPEDTAVYYCAAGGYPWLDSWGQGTQVTVSS” the “polyreactivity (PSR sort gate)” value was “low polyreactivity”.
In the case of “QVQLVESGGGLVQAGGSLRLSCAASGYTFRNYAMGWYRQAPGKERELVAAISTRGVSTYYADSVKGRFTISRDNAKNTVYLQMNSLKPEDTADYYCAAAGGRYSRAAYDYWGQGTQVTVSS”, the “polyreactivity (PSR sort gate)” value is reported as “low polyreactivity”.
For “QVQLVESGGGLVQAGGSLRLRCAASGRTFYYAMGWYRQAPGKERYADSVKGRFTISRDNAKNTVYLQMNSLKPEDTAVYYCAAKVPDPPSLDESDYWGQVTQVTVSS”, the “polyreactivity (PSR sort gate)” value was “low polyreactivity”.
In the case of “QVQLVESGGGLVQAGGSLRLSCAASGSTFYYYAMGGYRQAPGKERELVAAISISDNSTYYADSVKGRFTSSRDNAKNTVYLQMNSLKPEDTAVYYCAAYGWYAHDDSTYDYWGQGTQVTVSS”, the “polyreactivity (PSR sort gate)” value is reported as “low polyreactivity”.
For “QVHLVETGGGLVQAGGSLRLSCAASGSTFSFNAMGWYRQAPGKERELVAAISTSGGDTYYADSVKGRFTISRDNAKNTVYLQMNSLKPEDTAVYYCAAEYQVPGGSWMDYWGQGTQVTVSS”, the “polyreactivity (PSR sort gate)” value was “high polyreactivity”.
With “QVQLVESGGGLVQAGGRLRLSCAASGFIFDTKAMGWYRKAPGKERELGARISSSAGSTYYADSVKGLFTISRDNAKNTVYLQMNSLKPEDTAVYYCNRTYRLPVYKVDYWGQGTQVTVSS” the “polyreactivity (PSR sort gate)” value was “low polyreactivity”.
With “QVQLVESGGGLVQAGGSLRLSCAASGFTLVKYVMGWYRPAPGKERELVAAINRSGTSTYYADSVKGRFTISRDNAKNTVYLQMNSLKPEDTAVYYCAAERSRNFDWGQGTQVTVSS” the “polyreactivity (PSR sort gate)” value was “high polyreactivity”.
In the case of “QDQLVESGGGLVQAGGSLRLSCAASYYAMGWYRQAPGKERELVASISSGGSTNYADSVKGRFTISRDNAKNTVYLQMNSLKPDDTAVYYCAAQYYATYGYWGQGTQVTVSS”, the “polyreactivity (PSR sort gate)” value is reported as “low polyreactivity”.
In the case of “QVQLVESGGGLVQAGGSLRLSCAATGLTFPQYAMGWYRQAPGKEREIVAAIRSSDDRTYYADSVKGRFTISRDNAKNTVYLQLNSLKPEDTAVYYCAARVGKIGYKPRMDYWGQGTQVSVSS”, the “polyreactivity (PSR sort gate)” value is reported as “high polyreactivity”.
For “QVQLVESGGGLVQAGGSLRLSCAASGRIFIRNAMGWYRQAPGKEREFVAAISYGGSTYYADSVKGRFTISRDNAKNTVYLQMNSLKPEDTAVYYCAARVLPYLTPRRQMYYWGQGTQVTVSS”, the “polyreactivity (PSR sort gate)” value was “low polyreactivity”.

From the nanobody polyreactivity screen of Harvey et al. (2022)
